Results reported in the Human Domainome abundance scans (Beltran et al. 2025).
± gives the uncertainty stated by the source.

B1: 3'-5' exoribonuclease 1, residues 65 to 114; numbered along this chain, Q8IV48 (parent)
chain: VYKEIAITNGCINRMSKEELRAKLSEFKLETRGVKDVLKKRLKNYYKKQK

Variants of: B1
Assay: abundance fitness (aPCA) (normalised: wild type 0, dead -1); higher = more abundant; growth selection in yeast, the domain comes from the species named
Conditions: Homo sapiens

Abundance fitness of substitutions, site by site:
V34: Y -0.244 ± 0.057 | H 0.054 ± 0.051 | D -0.293 ± 0.077 | P -0.379 ± 0.055 | Q -0.241 ± 0.1 | W -0.352 ± 0.077 | S -0.109 ± 0.043 | L -0.213 ± 0.044 | C -0.078 ± 0.059 | A -0.177 ± 0.051 | R 0.11 ± 0.05 | I -0.064 ± 0.042 | T 0.046 ± 0.051 | E -0.553 ± 0.11 | N 0.039 ± 0.055 | F -0.245 ± 0.048 | K 0.079 ± 0.08 | M -0.582 ± 0.075 | G -0.213 ± 0.05
K39: T -0.458 ± 0.055 | M -0.521 ± 0.11 | V -0.196 ± 0.063 | I -0.382 ± 0.055 | W -1.04 ± 0.2 | F -0.909 ± 0.059 | C -0.396 ± 0.067 | N -0.582 ± 0.057 | H -1.11 ± 0.099 | G -0.721 ± 0.1 | D -0.967 ± 0.18 | A -0.36 ± 0.051 | E -0.939 ± 0.14 | L -0.632 ± 0.051 | P -0.979 ± 0.091 | Y -0.917 ± 0.09 | R -0.114 ± 0.068 | Q -0.398 ± 0.089
E30: P -0.283 ± 0.035 | S -0.148 ± 0.033 | T -0.566 ± 0.038 | I -0.732 ± 0.046 | M -0.685 ± 0.061 | R -0.685 ± 0.036 | F -0.501 ± 0.04 | L -0.67 ± 0.036 | K -0.401 ± 0.069 | N -0.16 ± 0.042 | G -0.562 ± 0.047 | Q -0.359 ± 0.051 | H -0.689 ± 0.04 | W -0.516 ± 0.054 | V -0.738 ± 0.058 | Y -0.387 ± 0.041
K40: E -0.44 ± 0.055 | T -0.398 ± 0.044 | D -0.741 ± 0.062 | Y -0.7 ± 0.059 | A -0.427 ± 0.038 | C -0.705 ± 0.052 | W -0.985 ± 0.062 | I -0.819 ± 0.07 | P -0.951 ± 0.068 | L -0.608 ± 0.037 | F -0.992 ± 0.073 | G -0.777 ± 0.04 | H -0.576 ± 0.056 | V -0.669 ± 0.038 | S -0.521 ± 0.039 | M -0.634 ± 0.057 | N -0.319 ± 0.067
K35: T -0.314 ± 0.041 | A -0.347 ± 0.047 | M -0.765 ± 0.064 | S -0.48 ± 0.038 | Q -0.767 ± 0.075 | N -0.697 ± 0.05 | I -0.475 ± 0.047 | G -0.845 ± 0.052 | V -0.262 ± 0.044 | D -0.772 ± 0.063 | W -0.815 ± 0.088 | C -0.58 ± 0.052 | Y -0.827 ± 0.057 | L -0.698 ± 0.041 | F -0.81 ± 0.052 | P -0.797 ± 0.05 | R -0.52 ± 0.041 | H -0.709 ± 0.048
G33: E -0.791 ± 0.12 | Q -1.09 ± 0.089 | R -0.739 ± 0.053 | W -0.779 ± 0.11 | S -0.787 ± 0.038 | A -0.842 ± 0.047 | M -0.988 ± 0.082 | Y -0.931 ± 0.053 | I -0.97 ± 0.053 | F -0.977 ± 0.056 | T -1.06 ± 0.058 | H -0.875 ± 0.057 | C -0.608 ± 0.045 | N -0.991 ± 0.061 | K -0.93 ± 0.09 | D -0.663 ± 0.046
L42: G -0.871 ± 0.038 | V -0.754 ± 0.038 | P -0.999 ± 0.081 | W -0.888 ± 0.049 | F -0.551 ± 0.057 | D -0.961 ± 0.083 | E -0.892 ± 0.057 | K -1.04 ± 0.1 | A -0.918 ± 0.053 | N -0.918 ± 0.1 | S -0.511 ± 0.041 | Y -0.969 ± 0.092 | C -0.925 ± 0.067 | H -0.907 ± 0.075 | M -0.611 ± 0.064 | Q -0.912 ± 0.071 | T -1.1 ± 0.087
K28: Y -0.39 ± 0.065 | F -0.407 ± 0.083 | M -0.194 ± 0.055 | E -0.178 ± 0.057 | G 0.038 ± 0.043 | H -0.057 ± 0.06 | Q -0.124 ± 0.068 | R -0.061 ± 0.036 | D -0.156 ± 0.07 | T -0.338 ± 0.06 | L -0.732 ± 0.053 | W -0.779 ± 0.059 | V -0.817 ± 0.058 | S -0.06 ± 0.042 | P -0.963 ± 0.083
K43: A -0.579 ± 0.05 | N -0.39 ± 0.061 | F -0.755 ± 0.062 | I -0.448 ± 0.074 | Y -0.723 ± 0.083 | L -0.593 ± 0.042 | P -0.806 ± 0.063 | V -0.597 ± 0.047 | T -0.55 ± 0.058 | Q -0.469 ± 0.068 | R -0.366 ± 0.036 | D -0.737 ± 0.099 | G -0.846 ± 0.043 | M -0.506 ± 0.063 | E -0.712 ± 0.063 | C -0.823 ± 0.061 | H -0.729 ± 0.072
Y46: T -0.125 ± 0.047 | G -0.533 ± 0.035 | S -0.277 ± 0.04 | Q -0.166 ± 0.066 | N -0.268 ± 0.069 | I 0.114 ± 0.053 | F 0.116 ± 0.06 | C 0.066 ± 0.042 | K -0.32 ± 0.067 | P -1 ± 0.07 | L 0.079 ± 0.038 | E -0.703 ± 0.057 | M 0.111 ± 0.046 | W -0.229 ± 0.049
T31: K -0.05 ± 0.054 | G -0.791 ± 0.056 | Q -0.156 ± 0.045 | L -0.639 ± 0.035 | W -0.161 ± 0.071 | I -0.134 ± 0.035 | V -0.106 ± 0.041 | M -0.285 ± 0.055 | N -0.115 ± 0.038 | S -0.088 ± 0.033 | F 0.038 ± 0.037 | H 0.143 ± 0.035 | A -0.198 ± 0.042 | R -0.327 ± 0.042 | P -0.114 ± 0.035 | Y 0.121 ± 0.04
L29: A -0.827 ± 0.044 | H -0.974 ± 0.051 | E -0.737 ± 0.068 | N -0.827 ± 0.052 | C -0.256 ± 0.041 | W -0.694 ± 0.056 | K -0.666 ± 0.054 | F -0.688 ± 0.04 | M -0.198 ± 0.051 | Q -0.196 ± 0.05 | I -0.349 ± 0.041 | V -0.561 ± 0.04 | Y -0.874 ± 0.047 | P -0.999 ± 0.049 | T -0.884 ± 0.048 | D -0.878 ± 0.062 | G -0.875 ± 0.051
V37: N -0.321 ± 0.076 | A -0.037 ± 0.061 | P -1.02 ± 0.11 | G -0.639 ± 0.08 | I -0.228 ± 0.046 | E -0.096 ± 0.098 | D -0.25 ± 0.11 | Q -0.148 ± 0.075 | S -0.136 ± 0.055 | W -0.763 ± 0.12 | R -0.124 ± 0.066 | F -0.562 ± 0.053 | K 0.027 ± 0.075 | T 0.01 ± 0.063 | Y -0.853 ± 0.095 | H -0.695 ± 0.069 | L -0.544 ± 0.052 | C -0.191 ± 0.078
K47: L -0.381 ± 0.042 | A -0.288 ± 0.044 | I -0.415 ± 0.057 | N -0.155 ± 0.063 | F -0.572 ± 0.066 | G -0.447 ± 0.037 | M -0.34 ± 0.061 | C -0.491 ± 0.05 | H -0.409 ± 0.075 | D -0.643 ± 0.081
Y45: V -0.8 ± 0.039 | C -0.399 ± 0.06 | M -0.643 ± 0.059 | E -0.63 ± 0.048 | P -0.995 ± 0.087 | F -0.094 ± 0.076 | R -0.878 ± 0.051 | N -0.64 ± 0.081 | G -0.891 ± 0.045 | W -0.051 ± 0.048 | T -1 ± 0.065 | S -0.279 ± 0.042 | H -0.048 ± 0.06 | D -0.954 ± 0.076 | Q -0.876 ± 0.081 | K -0.916 ± 0.081 | A -0.383 ± 0.038 | L -0.637 ± 0.045 | I -0.664 ± 0.08
R32: A -0.383 ± 0.036 | H -0.319 ± 0.034 | L -0.703 ± 0.035 | D -0.399 ± 0.049 | E -0.572 ± 0.067 | C -0.459 ± 0.04 | P -0.964 ± 0.042 | K -0.209 ± 0.047 | G -0.394 ± 0.039 | V -0.471 ± 0.036 | I -0.628 ± 0.037 | F -0.521 ± 0.042 | T -0.292 ± 0.035 | N -0.409 ± 0.037 | W -0.478 ± 0.051 | S -0.318 ± 0.033 | Q -0.396 ± 0.043 | M -0.646 ± 0.051
N44: S -0.087 ± 0.04 | C -0.211 ± 0.066 | T -0.086 ± 0.045 | P -0.767 ± 0.054 | Q -0.063 ± 0.046 | V -0.318 ± 0.039 | A -0.021 ± 0.04 | G -0.158 ± 0.04 | H -0.065 ± 0.053 | K 0.05 ± 0.051 | Y -0.27 ± 0.059 | M -0.164 ± 0.048 | W -0.376 ± 0.054 | E -0.193 ± 0.053 | L -0.168 ± 0.036 | R 0.017 ± 0.038 | F -0.306 ± 0.066
D36: S 0.048 ± 0.032 | A -0.024 ± 0.035 | Q -0.236 ± 0.047 | M -0.27 ± 0.048 | G -0.244 ± 0.035 | N 0.02 ± 0.036 | I -0.334 ± 0.037 | E -0.379 ± 0.051 | V -0.292 ± 0.035 | P -0.17 ± 0.036 | H 0 ± 0.036 | W -0.106 ± 0.048 | T -0.042 ± 0.037 | R 0 ± 0.035 | Y -0.176 ± 0.034 | F -0.289 ± 0.035 | L -0.201 ± 0.033 | K 0.044 ± 0.054
R41: C -1.01 ± 0.078 | W -0.975 ± 0.06 | K -0.914 ± 0.089 | Y -0.941 ± 0.12 | P -0.803 ± 0.063 | A -0.891 ± 0.046 | H -1.02 ± 0.12 | Q -0.992 ± 0.066 | M -0.803 ± 0.062 | S -0.641 ± 0.044 | D -1.09 ± 0.15 | E -1.02 ± 0.067 | V -1.02 ± 0.052 | T -0.963 ± 0.067 | F -0.887 ± 0.18 | I -0.865 ± 0.18 | N -0.895 ± 0.17
L38: H -1.02 ± 0.076 | G -1.09 ± 0.1 | E -0.933 ± 0.2 | R -0.948 ± 0.072 | P -0.968 ± 0.072 | D -0.376 ± 0.25 | A -0.893 ± 0.11 | K -0.828 ± 0.11 | F -0.668 ± 0.049 | Y -1.05 ± 0.085 | I -0.541 ± 0.049 | Q -0.874 ± 0.076 | N -0.95 ± 0.07 | S -0.458 ± 0.042 | M -0.338 ± 0.066 | W -0.629 ± 0.087 | T -0.993 ± 0.065
